According to PMC6555819, “Comprehensive study of nuclear receptor DNA binding provides a revised framework for understanding receptor specificity”:
Positions count from the first letter of the chain named.

B1: NRC3_wobSeed138_DR5_C13G_o1 (dsDNA)
DNA 1: GCGATACAGGGTGAGCTAGAGGCCAGAGTATGGAAAGCGATTGACAGCGTAGAATGAAGG
DNA 2: CCTTCATTCTACGCTGTCAATCGCTTTCCATACTCTGGCCTCTAGCTCACCCTGTATCGC
B2: NRC3_wobSeed87_DR3_T8G_o1 (dsDNA)
DNA 1: GCCGAACGAGGTCATCCAGGACAGTGAATACATTGAGCGATTGACAGCGTAGAATGAAGG
DNA 2: CCTTCATTCTACGCTGTCAATCGCTCAATGTATTCACTGTCCTGGATGACCTCGTTCGGC
B3: NRC3_random_hg19_322_o1 (dsDNA)
DNA 1: GCTGTAAAGTGGTCCACTGACAGCTTCCACTCTTCTGCGATTGACAGCGTAGAATGAAGG
DNA 2: CCTTCATTCTACGCTGTCAATCGCAGAAGAGTGGAAGCTGTCAGTGGACCACTTTACAGC
B4: NRC3_wobSeed119_DR4_G23C_o1 (dsDNA)
DNA 1: GCGGAACGAGGGCATTCGAGTTCATAGCATGGCGATGCGATTGACAGCGTAGAATGAAGG
DNA 2: CCTTCATTCTACGCTGTCAATCGCATCGCCATGCTATGAACTCGAATGCCCTCGTTCCGC
B5: NRC3_wobSeed120_DR4_G22T_o1 (dsDNA)
DNA 1: GCCCGAGTAGGTTACGAGGGGTCATTCAGTGCGAATGCGATTGACAGCGTAGAATGAAGG
DNA 2: CCTTCATTCTACGCTGTCAATCGCATTCGCACTGAATGACCCCTCGTAACCTACTCGGGC
B6: NRC3_wobSeed85_DR3_G15C_o1 (dsDNA)
DNA 1: GCCGTCCAAGGTCACAGAGGTCAGTGAATGCCGAGTGCGATTGACAGCGTAGAATGAAGG
DNA 2: CCTTCATTCTACGCTGTCAATCGCACTCGGCATTCACTGACCTCTGTGACCTTGGACGGC
B7: NRC3_wobSeed85_DR3_G24T_o1 (dsDNA)
DNA 1: B6 DNA 1 with C15G, G24T
DNA 2: B6 DNA 2 with C37A, G46C
B8: NRC3_random_hg19_103_o1 (dsDNA)
DNA 1: GCTCAGGAGTTCGAGAACAGCCTGGCTAACATGGCGGCGATTGACAGCGTAGAATGAAGG
DNA 2: CCTTCATTCTACGCTGTCAATCGCCGCCATGTTAGCCAGGCTGTTCTCGAACTCCTGAGC
B9: NRC3_wobSeed114_DR4_C22T_o1 (dsDNA)
DNA 1: GCAATACAGGGTCATCGTAGGTCAGAGTACGCACAGGCGATTGACAGCGTAGAATGAAGG
DNA 2: CCTTCATTCTACGCTGTCAATCGCCTGTGCGTACTCTGACCTACGATGACCCTGTATTGC
B10: NRC3_random_hg19_419_o1 (dsDNA)
DNA 1: GCAGAGCAGACTTCCTGTGTATGTTAGGATGAAACCGCGATTGACAGCGTAGAATGAAGG
DNA 2: CCTTCATTCTACGCTGTCAATCGCGGTTTCATCCTAACATACACAGGAAGTCTGCTCTGC
B11: NRC3_wobSeed77_DR3_T22C_o1 (dsDNA)
DNA 1: GCACTTACGGGTCAACGAGGTCATAGCACGCGTATAGCGATTGACAGCGTAGAATGAAGG
DNA 2: CCTTCATTCTACGCTGTCAATCGCTATACGCGTGCTATGACCTCGTTGACCCGTAAGTGC
B12: NRC3_wobSeed97_DR4_A18G_o1 (dsDNA)
DNA 1: GCCAAACTAGGTCACGAGAGGTCAAAGTCGAATGACGCGATTGACAGCGTAGAATGAAGG
DNA 2: CCTTCATTCTACGCTGTCAATCGCGTCATTCGACTTTGACCTCTCGTGACCTAGTTTGGC
B13: NRC3_wobSeed117_DR4_A23T_o1 (dsDNA)
DNA 1: GCCGTCAAAGTTCAACTAAGGTTACGTAAAGCACGCGCGATTGACAGCGTAGAATGAAGG
DNA 2: CCTTCATTCTACGCTGTCAATCGCGCGTGCTTTACGTAACCTTAGTTGAACTTTGACGGC
B14: NRC3_wobSeed94_DR3_G13C_o1 (dsDNA)
DNA 1: GCCTACCAAGGTCAACAAGGTCGTTGATTACTATTCGCGATTGACAGCGTAGAATGAAGG
DNA 2: CCTTCATTCTACGCTGTCAATCGCGAATAGTAATCAACGACCTTGTTGACCTTGGTAGGC
B15: NRC3_wobSeed113_DR4_G15A_o1 (dsDNA)
DNA 1: GCATATGTAGGTTAACTGGGGTCATTCAGACTAGGCGCGATTGACAGCGTAGAATGAAGG
DNA 2: CCTTCATTCTACGCTGTCAATCGCGCCTAGTCTGAATGACCCCAGTTAACCTACATATGC
B16: NRC3_wobSeed49_DR2_T8G_o1 (dsDNA)
DNA 1: GCCAAACGAGGTCAAGAGGTCAAAGTCCGCTTCCCGGCGATTGACAGCGTAGAATGAAGG
DNA 2: CCTTCATTCTACGCTGTCAATCGCCGGGAAGCGGACTTTGACCTCTTGACCTCGTTTGGC

molecular target: PPARg:RXRa (Homo sapiens, UniProt P37231;P19793 full;full); test: no ligand; PBM; 180 nM : 90 nM RXRa; PBS pH 7.4, 2% milk, 0.02% Triton X-100, 1 mM DTT, BSA, 0.4 mg/ml salmon testes DNA; details: tags: His kept;His cleaved; copies: 1;1; label: surface-attached array probe

Binder	binding signal
B1	0.43 PBM z-score against 500 random probes

molecular target: THRa:RXRa (Homo sapiens, UniProt P10827;P19793 full;full); test: no ligand; PBM; 90 nM : 90 nM RXRa; PBS pH 7.4, 2% milk, 0.02% Triton X-100, 1 mM DTT, BSA, 0.4 mg/ml salmon testes DNA; details: tags: His kept;His cleaved; copies: 1;1; label: surface-attached array probe

Binder	binding signal
B2	4.78 PBM z-score against 500 random probes
B3	-0.7 PBM z-score against 500 random probes
B4	4.79 PBM z-score against 500 random probes
B5	4.77 PBM z-score against 500 random probes
B6	4.91 PBM z-score against 500 random probes
B7	4.8 PBM z-score against 500 random probes
B8	-0.5 PBM z-score against 500 random probes
B9	5.25 PBM z-score against 500 random probes
B10	-0.56 PBM z-score against 500 random probes
B11	4.97 PBM z-score against 500 random probes
B12	5.49 PBM z-score against 500 random probes
B13	5.54 PBM z-score against 500 random probes
B14	4.82 PBM z-score against 500 random probes
B15	5.49 PBM z-score against 500 random probes
B16	5.13 PBM z-score against 500 random probes
B1	0.33 PBM z-score against 500 random probes

molecular target: VDR:RXRa (Homo sapiens, UniProt P11473;P19793 full;full); test: no ligand; PBM; 270 nM : 90 nM RXRa; PBS pH 7.4, 2% milk, 0.02% Triton X-100, 1 mM DTT, BSA, 0.4 mg/ml salmon testes DNA; details: tags: His kept;His cleaved; copies: 1;1; label: surface-attached array probe
Outline: (§1)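 Binding z-scores take random background probes as their reference. They come from custom Agilent 4×180K protein-binding microarrays incubated 1 h with ligand-free nuclear receptor dimers, with antibodies against each partner (one per run) detecting binding. Scanned fluorescence was regression-normalized.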

VDR:RXRa, sequence (P11473 whole entry, chain 1 of 2): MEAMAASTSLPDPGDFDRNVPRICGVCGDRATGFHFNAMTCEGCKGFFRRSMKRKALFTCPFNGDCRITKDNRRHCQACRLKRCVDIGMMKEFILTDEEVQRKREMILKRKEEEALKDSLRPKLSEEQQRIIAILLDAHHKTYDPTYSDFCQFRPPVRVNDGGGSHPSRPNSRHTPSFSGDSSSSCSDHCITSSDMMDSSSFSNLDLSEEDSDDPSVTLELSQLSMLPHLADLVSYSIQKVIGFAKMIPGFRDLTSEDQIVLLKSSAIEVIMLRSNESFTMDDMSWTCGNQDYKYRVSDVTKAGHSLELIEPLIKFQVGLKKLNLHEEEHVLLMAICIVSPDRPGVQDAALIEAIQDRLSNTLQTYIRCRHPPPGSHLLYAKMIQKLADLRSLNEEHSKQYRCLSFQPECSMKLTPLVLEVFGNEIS
VDR:RXRa, sequence (P19793 whole entry, chain 2 of 2): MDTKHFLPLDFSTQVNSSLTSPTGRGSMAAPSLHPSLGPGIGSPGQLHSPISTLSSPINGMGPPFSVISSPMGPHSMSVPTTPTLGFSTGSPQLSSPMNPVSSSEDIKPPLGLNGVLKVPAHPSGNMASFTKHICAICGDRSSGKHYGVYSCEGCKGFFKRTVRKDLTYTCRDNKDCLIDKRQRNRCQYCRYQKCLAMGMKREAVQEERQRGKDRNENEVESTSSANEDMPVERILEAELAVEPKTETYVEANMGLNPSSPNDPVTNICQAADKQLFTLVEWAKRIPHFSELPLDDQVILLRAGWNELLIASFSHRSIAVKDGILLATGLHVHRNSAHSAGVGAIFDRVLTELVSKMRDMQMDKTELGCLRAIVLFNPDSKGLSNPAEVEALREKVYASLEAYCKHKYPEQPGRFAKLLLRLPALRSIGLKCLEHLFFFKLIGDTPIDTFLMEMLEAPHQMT

Binder	binding signal
B2	6.85 PBM z-score against 500 random probes
B3	-0.74 PBM z-score against 500 random probes
B4	7.03 PBM z-score against 500 random probes
B5	6.94 PBM z-score against 500 random probes
B7	8.16 PBM z-score against 500 random probes
B11	8.66 PBM z-score against 500 random probes
B12	7.3 PBM z-score against 500 random probes
B14	8.68 PBM z-score against 500 random probes
B15	7.19 PBM z-score against 500 random probes
B16	7.24 PBM z-score against 500 random probes

molecular target: RARg:RXRa (Homo sapiens, UniProt P13631;P19793 full;full); test: as above; details: tags: His kept;His cleaved; copies: 1;1; label: surface-attached array probe
Outline: as §1

Binder	binding signal
B6	7.46 PBM z-score against 500 random probes
B16	9.13 PBM z-score against 500 random probes

molecular target: LXRa:RXRa (Homo sapiens, UniProt Q13133;P19793 full;full); test: as above; details: tags: His kept;His cleaved; copies: 1;1; label: surface-attached array probe
Outline: as §1

LXRa:RXRa, sequence (Q13133 whole entry, chain 1 of 2): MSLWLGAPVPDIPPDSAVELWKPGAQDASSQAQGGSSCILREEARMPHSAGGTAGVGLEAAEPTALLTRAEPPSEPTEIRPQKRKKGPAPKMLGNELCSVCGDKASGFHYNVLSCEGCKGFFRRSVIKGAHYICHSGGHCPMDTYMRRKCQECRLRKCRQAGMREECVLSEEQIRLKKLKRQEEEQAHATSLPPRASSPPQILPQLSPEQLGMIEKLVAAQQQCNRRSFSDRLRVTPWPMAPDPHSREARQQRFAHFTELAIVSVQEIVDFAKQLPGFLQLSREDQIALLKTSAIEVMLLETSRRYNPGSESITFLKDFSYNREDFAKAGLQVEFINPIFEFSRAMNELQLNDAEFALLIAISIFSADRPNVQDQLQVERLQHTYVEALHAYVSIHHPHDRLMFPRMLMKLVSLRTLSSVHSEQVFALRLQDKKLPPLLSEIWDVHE
LXRa:RXRa, sequence (P19793 whole entry, chain 2 of 2): as the sequence (P19793 whole entry, chain 2 of 2) above

Binder	binding signal
B4	6.87 PBM z-score against 500 random probes
B5	8.11 PBM z-score against 500 random probes
B8	0.13 PBM z-score against 500 random probes
B9	7.62 PBM z-score against 500 random probes
B10	-0.87 PBM z-score against 500 random probes
B13	7.31 PBM z-score against 500 random probes
B14	6.7 PBM z-score against 500 random probes
B15	7.87 PBM z-score against 500 random probes
B16	7.08 PBM z-score against 500 random probes

molecular target: PXR:RXRa (Homo sapiens, UniProt O75469;P19793 full;full); test: as above; details: tags: His kept;His cleaved; copies: 1;1; label: surface-attached array probe
Outline: as §1

PXR:RXRa, sequence (O75469 whole entry, chain 1 of 2): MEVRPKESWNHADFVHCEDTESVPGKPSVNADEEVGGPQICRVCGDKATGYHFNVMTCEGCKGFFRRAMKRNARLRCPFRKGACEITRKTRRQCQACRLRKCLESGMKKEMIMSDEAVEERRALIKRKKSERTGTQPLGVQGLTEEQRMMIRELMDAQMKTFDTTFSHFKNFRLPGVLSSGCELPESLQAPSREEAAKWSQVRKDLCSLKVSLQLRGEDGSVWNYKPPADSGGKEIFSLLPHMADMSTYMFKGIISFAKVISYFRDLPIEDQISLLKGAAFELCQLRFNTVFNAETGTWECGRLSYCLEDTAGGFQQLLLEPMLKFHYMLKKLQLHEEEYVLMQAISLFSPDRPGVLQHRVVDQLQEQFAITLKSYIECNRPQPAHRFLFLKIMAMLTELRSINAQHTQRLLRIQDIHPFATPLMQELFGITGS
PXR:RXRa, sequence (P19793 whole entry, chain 2 of 2): as the sequence (P19793 whole entry, chain 2 of 2) above

Binder	binding signal
B2	6.36 PBM z-score against 500 random probes
B3	-0.56 PBM z-score against 500 random probes
B4	7.11 PBM z-score against 500 random probes
B5	6.59 PBM z-score against 500 random probes
B6	6.95 PBM z-score against 500 random probes
B7	7.16 PBM z-score against 500 random probes
B8	0.28 PBM z-score against 500 random probes
B9	6.36 PBM z-score against 500 random probes
B10	-0.62 PBM z-score against 500 random probes
B11	6.59 PBM z-score against 500 random probes
B12	7.59 PBM z-score against 500 random probes
B13	6.82 PBM z-score against 500 random probes
B14	6.83 PBM z-score against 500 random probes
B15	6.99 PBM z-score against 500 random probes
B16	7.24 PBM z-score against 500 random probes

molecular target: LXRb:RXRa (Homo sapiens, UniProt P55055;P19793 full;full); test: as above; details: tags: His kept;His cleaved; copies: 1;1; label: surface-attached array probe
Outline: as §1

Binder	binding signal
B3	-0.71 PBM z-score against 500 random probes
B5	7.35 PBM z-score against 500 random probes
B6	5.81 PBM z-score against 500 random probes
B9	6.24 PBM z-score against 500 random probes
B11	6.07 PBM z-score against 500 random probes
B14	5.94 PBM z-score against 500 random probes
B15	6.88 PBM z-score against 500 random probes
B16	6.98 PBM z-score against 500 random probes

molecular target: FXR:RXRa (Homo sapiens, UniProt Q96RI1;P19793 full;full); test: as above; details: tags: His kept;His cleaved; copies: 1;1; label: surface-attached array probe
Outline: as §1

FXR:RXRa, sequence (Q96RI1 whole entry, chain 1 of 2): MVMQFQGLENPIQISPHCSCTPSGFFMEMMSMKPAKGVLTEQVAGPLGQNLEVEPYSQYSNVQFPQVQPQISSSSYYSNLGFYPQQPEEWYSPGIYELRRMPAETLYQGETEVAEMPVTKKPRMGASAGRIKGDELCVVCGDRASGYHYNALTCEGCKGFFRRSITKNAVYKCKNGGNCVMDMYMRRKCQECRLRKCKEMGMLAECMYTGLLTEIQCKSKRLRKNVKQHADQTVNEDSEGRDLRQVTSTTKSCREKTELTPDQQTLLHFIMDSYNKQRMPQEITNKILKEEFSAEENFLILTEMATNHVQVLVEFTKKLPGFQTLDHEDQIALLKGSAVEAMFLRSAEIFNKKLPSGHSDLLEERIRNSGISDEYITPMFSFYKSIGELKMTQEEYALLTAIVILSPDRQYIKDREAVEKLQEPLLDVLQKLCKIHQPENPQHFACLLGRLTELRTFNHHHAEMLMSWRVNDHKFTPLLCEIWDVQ
FXR:RXRa, sequence (P19793 whole entry, chain 2 of 2): as the sequence (P19793 whole entry, chain 2 of 2) above

Binder	binding signal
B2	8.44 PBM z-score against 500 random probes
B6	7.83 PBM z-score against 500 random probes
B10	-0.65 PBM z-score against 500 random probes
B12	7.96 PBM z-score against 500 random probes
B14	8.19 PBM z-score against 500 random probes
B16	8.68 PBM z-score against 500 random probes

molecular target: PPARa:RXRa (Homo sapiens, UniProt Q07869;P19793 full;full); test: as above; details: tags: GST kept;His cleaved; copies: 1;1; label: surface-attached array probe
Outline: as §1

Binder	binding signal
B6	6.53 PBM z-score against 500 random probes
B16	7.33 PBM z-score against 500 random probes

molecular target: RARb:RXRa (Homo sapiens, UniProt P10826;P19793 full;full); test: as above; details: tags: His kept;His cleaved; copies: 1;1; label: surface-attached array probe
Outline: as §1

RARb:RXRa, sequence (P10826 whole entry, chain 1 of 2): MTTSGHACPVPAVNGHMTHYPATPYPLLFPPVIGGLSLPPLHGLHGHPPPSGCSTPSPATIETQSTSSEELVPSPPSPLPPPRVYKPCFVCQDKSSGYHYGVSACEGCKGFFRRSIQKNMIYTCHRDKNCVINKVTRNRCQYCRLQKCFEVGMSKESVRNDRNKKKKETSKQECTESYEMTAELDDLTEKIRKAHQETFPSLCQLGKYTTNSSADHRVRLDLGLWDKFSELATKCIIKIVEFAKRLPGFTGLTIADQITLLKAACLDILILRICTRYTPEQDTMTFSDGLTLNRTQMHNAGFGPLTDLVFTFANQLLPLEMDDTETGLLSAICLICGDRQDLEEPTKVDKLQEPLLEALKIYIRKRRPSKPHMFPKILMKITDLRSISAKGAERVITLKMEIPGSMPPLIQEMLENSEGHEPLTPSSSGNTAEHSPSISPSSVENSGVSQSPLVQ
RARb:RXRa, sequence (P19793 whole entry, chain 2 of 2): as the sequence (P19793 whole entry, chain 2 of 2) above

Binder	binding signal
B6	5.99 PBM z-score against 500 random probes
B7	5.65 PBM z-score against 500 random probes
B14	5.51 PBM z-score against 500 random probes
B16	6.35 PBM z-score against 500 random probes

molecular target: RXRa (Homo sapiens, UniProt P19793); test: no ligand; PBM; 180 nM; PBS pH 7.4, 2% milk, 0.02% Triton X-100, 1 mM DTT, BSA, 0.4 mg/ml salmon testes DNA; details: tags: His cleaved; chain copies: 2; label: surface-attached array probe

Binder	binding signal
B11	7.88 PBM z-score against 500 random probes
B16	9.6 PBM z-score against 500 random probes
